Experimental data taken from the supplement of paper PMC7125110.
± gives the standard error. For part of these data: Variants at the floor of the assay were thinned out.

B1: glmS ribozyme (parent)
chain: AUAAAAGCGCCAGAACUACAGAAAUGUAGUUGACGAGGAGGAGGUUUAUCGAAUUUUCGGCGGAUGCCUCCAAA

Key:
Conditions in all cases: with glucosamine-6-phosphate
[1] = variants of: B1; assay: kcat; higher = faster cleavage; RNA array
Procedure, shortened: (§1)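 kcat and KM were obtained from weighted Michaelis–Menten fits across concentrations of kobs values. Those came from one- or two-exponential decay fits to per-tile medians normalised to baseline and to non-cleaving reference variants. The variants were barcoded ribozymes transcribed in situ by E. coli RNA polymerase on sequenced MiSeq chips and tracked through a hybridised Cy3 probe at 37 °C, with 40 μM to 10 mM glucosamine-6-phosphate in HEPES/KCl/Mg(OAc)2 buffer flowed in.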

[2] = variants of: B1; assay: KM; higher = weaker cofactor use; RNA array
Procedure, shortened: as §1

[3] = variants of: B1; assay: self-cleavage kobs at 40 uM GlcN6P; higher = faster cleavage; RNA array
Procedure, shortened: as §1

[4] = variants of: B1; assay: self-cleavage kobs at 160 uM GlcN6P; higher = faster cleavage; RNA array
Procedure, shortened: as §1

[5] = variants of: B1; assay: self-cleavage kobs at 640 uM GlcN6P; higher = faster cleavage; RNA array
Procedure, shortened: as §1

[6] = variants of: B1; assay: self-cleavage kobs at 2500 uM GlcN6P; higher = faster cleavage; RNA array
Procedure, shortened: as §1

[7] = variants of: B1; assay: self-cleavage kobs at 10000 uM GlcN6P; higher = faster cleavage; RNA array
Procedure, shortened: as §1

Row | Variant | kcat [1] | KM [2] | self-cleavage kobs at 40 uM GlcN6P [3] | self-cleavage kobs at 160 uM GlcN6P [4] | self-cleavage kobs at 640 uM GlcN6P [5] | self-cleavage kobs at 2500 uM GlcN6P [6] | self-cleavage kobs at 10000 uM GlcN6P [7]
1 | A15U C68U | 0.000466 ± 3e-05 s⁻¹ | 1610 ± 210 µM | 1.92e-05 ± 9.6e-06 s⁻¹ | 4.94e-05 ± 7.4e-06 s⁻¹ | 0.000127 ± 9.9e-06 s⁻¹ | 0.000277 ± 2.2e-05 s⁻¹ | 0.000409 ± 2.7e-05 s⁻¹
2 | A15G A42C | 1.26e-05 ± 4.1e-06 s⁻¹ |  |  | < 1e-05 s⁻¹ |  |  | 
3 | A15C G43A | < 1e-05 s⁻¹ |  | < 1e-05 s⁻¹ | < 1e-05 s⁻¹ | < 1e-05 s⁻¹ |  | 
4 | A15G G29C U31C A39U | 0.000143 ± 2.1e-06 s⁻¹ | 4650 ± 160 µM |  |  |  | 5.02e-05 ± 1.3e-05 s⁻¹ | 9.79e-05 ± 1.4e-05 s⁻¹
5 | A15C C71U | 0.00455 ± 0.0014 s⁻¹ | 1580 ± 690 µM | 0.000165 ± 1.6e-05 s⁻¹ | 0.000358 ± 4.6e-05 s⁻¹ | 0.00111 ± 0.00013 s⁻¹ | 0.00266 ± 0.00039 s⁻¹ | 0.00453 ± 0.00056 s⁻¹
6 | A15U U55A | 0.00715 ± 0.0012 s⁻¹ | 2060 ± 490 µM | 0.000164 ± 1.8e-05 s⁻¹ | 0.000472 ± 5.3e-05 s⁻¹ | 0.00147 ± 0.00021 s⁻¹ | 0.00588 ± 0.0011 s⁻¹ | 0.00586 ± 0.00053 s⁻¹
7 | A15G U47G | 0.00418 ± 0.0015 s⁻¹ |  | 0.000326 ± 5.4e-05 s⁻¹ | 0.000812 ± 0.00016 s⁻¹ | 0.00171 ± 0.00031 s⁻¹ | 0.00298 ± 0.00072 s⁻¹ | 0.00738 ± 0.0014 s⁻¹
8 | C16G C50A U57C C68U C71G | 2.93e-05 ± 8.8e-06 s⁻¹ |  |  |  |  |  | 
9 | A15U G38U | < 1e-05 s⁻¹ |  | < 1e-05 s⁻¹ | < 1e-05 s⁻¹ |  |  | 
10 | A15U A33G | < 1e-05 s⁻¹ |  |  |  |  |  | < 1e-05 s⁻¹
11 | A15U A33U | 5.77e-05 ± 6.8e-06 s⁻¹ |  |  |  |  | 5.26e-05 ± 1e-05 s⁻¹ | 5.13e-05 ± 7.3e-06 s⁻¹
12 | A14U U47C | 0.000442 ± 6.2e-05 s⁻¹ | 1430 ± 360 µM |  | 4.9e-05 ± 8.6e-06 s⁻¹ | 0.000138 ± 1.3e-05 s⁻¹ | 0.000238 ± 3.2e-05 s⁻¹ | 0.000442 ± 5.2e-05 s⁻¹
13 | A15C C68A | 2.89e-05 ± 1.1e-05 s⁻¹ |  |  |  |  |  | 
14 | C16A U46G A48G C50U C67A | 1.04e-05 ± 4.5e-06 s⁻¹ |  |  |  |  |  | 
15 | C16G G32C | 0.000124 ± 1.6e-05 s⁻¹ | 4550 ± 1400 µM |  |  |  | 4.67e-05 ± 9.8e-06 s⁻¹ | 8.49e-05 ± 1e-05 s⁻¹
16 | A15G G51U C71A | 1.45e-05 ± 1.7e-06 s⁻¹ | 510 ± 210 µM |  |  |  |  | < 1e-05 s⁻¹
17 | A15G G32U | 0.00117 ± 2.6e-05 s⁻¹ | 2990 ± 100 µM |  | 6.02e-05 ± 1.1e-05 s⁻¹ | 0.000208 ± 2.6e-05 s⁻¹ | 0.000525 ± 5.2e-05 s⁻¹ | 0.000917 ± 0.00013 s⁻¹

Row | Variant | kcat [1] | KM [2] | self-cleavage kobs at 40 uM GlcN6P [3] | self-cleavage kobs at 160 uM GlcN6P [4] | self-cleavage kobs at 640 uM GlcN6P [5] | self-cleavage kobs at 2500 uM GlcN6P [6] | self-cleavage kobs at 10000 uM GlcN6P [7]
18 | A15C C16U | 0.00405 ± 0.00069 s⁻¹ | 3220 ± 830 µM | 4.37e-05 ± 7.4e-06 s⁻¹ | 0.000159 ± 4.5e-05 s⁻¹ | 0.000777 ± 0.0001 s⁻¹ | 0.00235 ± 0.00038 s⁻¹ | 0.0029 ± 0.0003 s⁻¹
19 | A14U U49C | < 1e-05 s⁻¹ |  | < 1e-05 s⁻¹ | < 1e-05 s⁻¹ |  |  | 
20 | A15G U55C | 0.0256 ± 0.0046 s⁻¹ | 1870 ± 410 µM | 0.000564 ± 7.9e-05 s⁻¹ | 0.00212 ± 0.00033 s⁻¹ | 0.0055 ± 0.0011 s⁻¹ | 0.0125 ± 0.005 s⁻¹ | 0.0242 ± 0.0051 s⁻¹
21 | C16A G59A | 1.02e-05 ± 3.6e-06 s⁻¹ |  |  |  |  |  | 
22 | A15U U30G | 0.0605 ± 0.018 s⁻¹ | 3400 ± 1200 µM | 0.000777 ± 7.3e-05 s⁻¹ | 0.00242 ± 0.00032 s⁻¹ | 0.00977 ± 0.0011 s⁻¹ | 0.0219 ± 0.0035 s⁻¹ | 0.0582 ± 0.012 s⁻¹
23 | A15G C16G | 0.00525 ± 0.001 s⁻¹ | 2660 ± 820 µM | 9.12e-05 ± 2.2e-05 s⁻¹ | 0.000213 ± 6.8e-05 s⁻¹ | 0.0011 ± 0.00023 s⁻¹ | 0.00326 ± 0.00063 s⁻¹ | 0.00391 ± 0.00059 s⁻¹
24 | A15U U46A | 0.000378 ± 2.9e-05 s⁻¹ | 2050 ± 300 µM |  | 3.16e-05 ± 1.1e-05 s⁻¹ | 8.53e-05 ± 9.5e-06 s⁻¹ | 0.000225 ± 2.3e-05 s⁻¹ | 0.000303 ± 3.2e-05 s⁻¹
25 | C16G C67U | 0.000669 ± 7.7e-05 s⁻¹ | 736 ± 160 µM | 4.87e-05 ± 9.4e-06 s⁻¹ | 0.000106 ± 1.5e-05 s⁻¹ | 0.000318 ± 3.4e-05 s⁻¹ | 0.000504 ± 6.2e-05 s⁻¹ | 0.000642 ± 8.6e-05 s⁻¹
26 | A15U G32C | 0.000139 ± 7.8e-06 s⁻¹ | 2550 ± 370 µM |  |  | 3.14e-05 ± 7.2e-06 s⁻¹ | 6.49e-05 ± 8.6e-06 s⁻¹ | 0.000112 ± 9.6e-06 s⁻¹
27 | A15G C16U C68G | 5.74e-05 ± 2.6e-05 s⁻¹ |  |  |  | 8.06e-05 ± 1.8e-05 s⁻¹ | 8.91e-05 ± 3e-05 s⁻¹ | 
28 | A15G G37U U54A U55A G60C C68G | 2.16e-05 ± 6.5e-06 s⁻¹ |  |  |  |  |  | 
29 | A15U G51C | < 1e-05 s⁻¹ |  | < 1e-05 s⁻¹ |  | < 1e-05 s⁻¹ |  | 
30 | A14U U54G | 0.00917 ± 0.0032 s⁻¹ |  | 0.000217 ± 2.4e-05 s⁻¹ | 0.000382 ± 6.2e-05 s⁻¹ | 0.00128 ± 0.00026 s⁻¹ | 0.00387 ± 0.00047 s⁻¹ | 0.00759 ± 0.00076 s⁻¹
31 | A14U U54C | 0.00754 ± 0.0024 s⁻¹ | 1830 ± 830 µM | 0.00021 ± 2.8e-05 s⁻¹ | 0.000513 ± 8.8e-05 s⁻¹ | 0.00201 ± 0.00026 s⁻¹ | 0.00338 ± 0.00053 s⁻¹ | 0.00856 ± 0.0012 s⁻¹
32 | A15G C70G | 0.000355 ± 6.5e-05 s⁻¹ | 180 ± 79 µM | 8.28e-05 ± 1.3e-05 s⁻¹ | 0.000137 ± 1.9e-05 s⁻¹ | 0.000303 ± 2.7e-05 s⁻¹ |  | 0.00033 ± 5.4e-05 s⁻¹
33 | A15U A39U | 0.00466 ± 0.00041 s⁻¹ | 2280 ± 280 µM | 8.33e-05 ± 9.7e-06 s⁻¹ | 0.000251 ± 5.5e-05 s⁻¹ | 0.0011 ± 0.00013 s⁻¹ | 0.00233 ± 0.00043 s⁻¹ | 0.0038 ± 0.0004 s⁻¹
